According to US10808009B2, “Peptide conjugates” (BIONIZ, LLC, priority 2011, dated 2020):
No end group written: not given here. MAL‑PEG24 = bi-functional PEG24 molecule (Mal-PEG24)

How the values were obtained:
Format in all cases: cell-based
IL-15 = IL-15 (Homo sapiens, UniProt P40933); experiment: CTLL2 proliferation assay (WST-1), IL-15, dual peptide; conditions: CTLL2 cells, IL-15 2.5 ng/ml and 5 ng/ml, increasing BNZ132-PEG-130 (0.1-10 uM)
IL-6 = experiment: T1165 proliferation assay (WST-1), IL-6, dual peptide; conditions: T1165 cells, IL-6 0.1 ng/ml, increasing BNZ132-PEG-130
IL-2 = IL-2 (Homo sapiens, UniProt P60568); experiment: CTLL2 proliferation assay (WST-1), IL-2, dual peptide; conditions: CTLL2 cells, IL-2 5 u/ml and 10 u/ml, increasing BNZ132-PEG-130 (0.1-10 uM)
Chain of IL-2 (P60568 21-153): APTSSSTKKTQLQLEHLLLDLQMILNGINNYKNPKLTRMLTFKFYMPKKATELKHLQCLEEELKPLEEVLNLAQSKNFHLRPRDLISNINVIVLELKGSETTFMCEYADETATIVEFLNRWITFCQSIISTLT

Chain of IL-15 (P40933 49-162): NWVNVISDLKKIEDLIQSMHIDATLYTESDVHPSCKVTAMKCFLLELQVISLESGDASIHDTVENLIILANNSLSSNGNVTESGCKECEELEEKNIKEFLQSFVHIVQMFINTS

IKEFLQSFIHIVQSIINT (SEQ ID NO: 130)—MAL-PEG24—SLTHLIERSSRAVLQSLLRASRQ (SEQ ID NO: 131) (linker (positions not given here) via MAL‑PEG24; also: MAL-PEG24 attachment sites not given here) [BNZ132-PEG-130, BNZ132-1 conjugated to BNZ130 via a PEG24 linker; dual peptide antagonist]
inhibited in a dose response manner: inhibition of IL-15-induced proliferation (IL-15) | inhibition of IL-6-induced proliferation (IL-6) | inhibition of IL-2-induced proliferation (IL-2)
